Here are results for five molecules from patent publication US20240279307A1 (published 2024).

Assay [1] concerns the target T1, HMHA1, wild type (HA-1R; HA-1H-negative, rs1801284 G/G) peptide on HLA-A*02:01 (human).
T1 peptide: VLRDDLLEA
The experiment in a line: killing.

The target in assay [2] is T2, HMHA1 (Rho GTPase-activating protein 45), minor histocompatibility antigen HA-1H, R139H polymorphism peptide … (human).
T2 peptide: VLHDDLLEA
The experiment in a line: multimer staining.

B1: TCR2 (TCR, V domains shown)
Valpha: KQEVTQIPAALSVPEGENLVLNCSFTDSAIYNLQWFRQDPGKGLTSLLLIQSSQREQTSGRLNASLDKSSGRSTLYIAASQPGDSATYLCAVIGLGGTYKYIFGTGTRLKVLA
Vbeta: DTGVSQDPRHKITKRGQNVTFRCDPISEHNRLYWYRQTLGQGPEFLTYFQNEAQLEKSRLLSDRFSAERPKGSFSTLEIQRTEQGDSAMYLCASSLVKGEKLFFGSGTQLSVL
Turning to B1, the figures for the binding result in assay [1] and in assay [2] were “no recognition” and “recognises”, respectively.

B2: TCR16 (TCR, V domains shown)
Valpha: KQEVTQIPAALSVPEGENLVLNCSFTDSAIYNLQWFRQDPGKGLTSLLLIQSSQREQTSGRLNASLDKSSGRSTLYIAASQPGDSATYLCAVHLLNDYKLSFGAGTTVTVRA
Vbeta: DTGVSQDPRHKITKRGQNVTFRCDPISEHNRLYWYRQTLGQGPEFLTYFQNEAQLEKSRLLSDRFSAERPKGSFSTLEIQRTEQGDSAMYLCASSLVVGNEQFFGPGTRLTVL
Take B2: the binding result in assay [1] is listed as “no recognition”; in assay [2], “recognises”.

B3: TCR5 (TCR, V domains shown)
Valpha: SQQGEEDPQALSIQEGENATMNCSYKTSINNLQWYRQNSGRGLVHLILIRSNEREKHSGRLRVTLDTSKKSSSLLITASRAADTASYFCATNSGNTPLVFGKGTRLSVIA
Vbeta: DTGVSQDPRHKITKRGQNVTFRCDPISEHNRLYWYRQTLGQGPEFLTYFQNEAQLEKSRLLSDRFSAERPKGSFSTLEIQRTEQGDSAMYLCASSLTTLDEQYVGPGTRLTVT
Consider B3, for which the binding result in assay [1] is “no recognition”; in assay [2], “recognises”.

B4: TCR10 (TCR, V domains shown)
Valpha: KNQVEQSPQSLIILEGKNCTLQCNYTVSPFSNLRWYKQDTGRGPVSLTIMTFSENTKSNGRYTATLDADTKQSSLHITASQLSDSASYICVVDSGGGADGLTFGKGTHLIIQP
Vbeta: DTGVSQDPRHKITKRGQNVTFRCDPISEHNRLYWYRQTLGQGPEFLTYFQNEAQLEKSRLLSDRFSAERPKGSFSTLEIQRTEQGDSAMYLCASSMLTNYEQYFGPGTRLTVT
On to B4, for which the binding result in assay [1] is on record as “no recognition”; in assay [2] it was “recognises”.

B5: TCR1 (TCR, V domains shown)
Valpha: SQQGEEDPQALSIQEGENATMNCSYKTSINNLQWYRQNSGRGLVHLILIRSNEREKHSGRLRVTLDTSKKSSSLLITASRAADTASYFCATKRDSGAGSYQLTFGKGTKLSVIP
Vbeta: DTGVSQDPRHKITKRGQNVTFRCDPISEHNRLYWYRQTLGQGPEFLTYFQNEAQLEKSRLLSDRFSAERPKGSFSTLEIQRTEQGDSAMYLCASSSTGGHNEQFFGPGTRLTVL
Regarding B5, the binding result in assay [1] is recorded as “no recognition”; in assay [2] it was “recognises”.
